Experiment [1] concerns the target T1, Recombinant human QSOX1 (HsQSOX1 33-546) (human, UniProt O00391 33-546, bound FAD cofactor).
T1 sequence: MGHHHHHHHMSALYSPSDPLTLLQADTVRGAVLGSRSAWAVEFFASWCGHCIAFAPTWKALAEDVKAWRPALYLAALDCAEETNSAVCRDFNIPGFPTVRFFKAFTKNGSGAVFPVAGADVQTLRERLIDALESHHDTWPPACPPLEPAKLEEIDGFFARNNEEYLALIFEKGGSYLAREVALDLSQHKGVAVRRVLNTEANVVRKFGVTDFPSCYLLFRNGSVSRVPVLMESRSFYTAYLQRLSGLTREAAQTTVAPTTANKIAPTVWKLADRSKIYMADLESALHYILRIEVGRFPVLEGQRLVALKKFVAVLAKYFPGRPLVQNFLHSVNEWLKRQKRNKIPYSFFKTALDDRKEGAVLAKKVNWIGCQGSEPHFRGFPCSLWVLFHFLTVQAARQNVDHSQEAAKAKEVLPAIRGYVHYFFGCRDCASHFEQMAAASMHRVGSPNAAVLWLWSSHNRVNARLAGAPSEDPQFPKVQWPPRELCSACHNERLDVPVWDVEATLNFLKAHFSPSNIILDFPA
As to the kind of experiment: cell-based or functional assay.

Experiment [2] concerns the target T1, Recombinant human QSOX1 (HsQSOX1 33-546). As to the kind of experiment: calculated from the IC50 of the rdRNase oxidation colorimetric assay with the equation for competitive inhibition.
For experiment [3], the target named is T2, HsQSOX1Erv (carboxy-terminal fragment of human QSOX1, psi-Erv and Erv domains) (human, UniProt O00391 286-546, limits assumed, bound FAD cofactor).
T2 construct: domain: carboxy-terminal fragment, HsQSOX1Erv (two Erv-fold domains); also called HsQSOX1 carboxy-terminal fragment
T2 sequence (looked up): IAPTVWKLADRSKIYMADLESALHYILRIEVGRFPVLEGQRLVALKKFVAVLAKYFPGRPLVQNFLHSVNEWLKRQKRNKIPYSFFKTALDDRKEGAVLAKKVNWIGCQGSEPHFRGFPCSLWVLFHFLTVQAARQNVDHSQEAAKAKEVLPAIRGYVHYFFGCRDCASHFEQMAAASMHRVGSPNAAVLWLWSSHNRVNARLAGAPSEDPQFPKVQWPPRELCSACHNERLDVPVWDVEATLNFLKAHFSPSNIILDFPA
As to the kind of experiment: ELISA. In general terms: In an ELISA, binding on a coated surface is turned into a signal by an enzyme label.

The target of experiment [4] is T1, Recombinant human QSOX1 (HsQSOX1 33-546). As to the kind of experiment: oxygen consumption assay, 25 nM HsQSOX1, 1-250 nM MAb492.1, 200 µM DTT, fit to a tight-binding inhibitor model.

B1: scFv492.1 (scFv)
scFv: QVQLKQSGPGLVAPSQSLSITCTVSGFSLTGYGVNWVRQSPGKGLEWLGMIWGDGRTDYKSALKSRLSITKDNSKSQVFLKMNSLQTDDTARYFCASDYYGSGSFAYWGQGTLVTVSAGGGGSGGGGSGGGGSDVVMTQTHKFMSTSVGDRVSITCKASQDVSTAVAWYQQKSGQSPKLLIHSASYRYTGVPDRFTGSGSGTDFTFTISSVQAEDLAVYYCQQHYSIPLTFGAGTKLELK
notes: also called single chain antibody fragment of MAb492.1; not shown: thrombin-cleavable His6-tag at the amino terminus
The term Ki denotes a dissociation constant, usually derived from enzyme kinetics or from competition with a known ligand. Regarding B1, the “IC50, inhibition of rdRNase oxidation (DTNB colorimetric assay), 50 nM HsQSOX1” value in experiment [1] stood at 250 nM. For the same molecule, the Ki in experiment [2] was 130 nM.

B2: MAb492.1 (antibody, V domains shown)
VH: QVQLKQSGPGLVAPSQSLSITCTVSGFSLTGYGVNWVRQSPGKGLEWLGMIWGDGRTDYKSALKSRLSITKDNSKSQVFLKMNSLQTDDTARYFCASDYYGSGSFAYWGQGTLVTVSA
VL: DVVMTQTHKFMSTSVGDRVSITCKASQDVSTAVAWYQQKSGQSPKLLIHSASYRYTGVPDRFTGSGSGTDFTFTISSVQAEDLAVYYCQQHYSIPLTFGAGTKLELK
notes: also called anti-QSOX1 monoclonal antibody; QSOX1-specific monoclonal antibody
B2: the binding result in experiment [3] is given as “no binding”. In experiment [1], the “IC50, inhibition of rdRNase oxidation (DTNB colorimetric assay), 50 nM HsQSOX1” value stood at 60 nM and the “IC50, inhibition of rdRNase oxidation (DTNB colorimetric assay), 250 nM HsQSOX1” value came out at 240 nM. Besides, the Ki in experiment [4] was 1 nM.

B3: Fab492.1 (Fab fragment of MAb492.1) (Fab, V domains shown)
VH: QVQLKQSGPGLVAPSQSLSITCTVSGFSLTGYGVNWVRQSPGKGLEWLGMIWGDGRTDYKSALKSRLSITKDNSKSQVFLKMNSLQTDDTARYFCASDYYGSGSFAYWGQGTLVTVSA
VL: DVVMTQTHKFMSTSVGDRVSITCKASQDVSTAVAWYQQKSGQSPKLLIHSASYRYTGVPDRFTGSGSGTDFTFTISSVQAEDLAVYYCQQHYSIPLTFGAGTKLELK
For B3, in experiment [1], the “IC50, inhibition of rdRNase oxidation (DTNB colorimetric assay), 50 nM HsQSOX1” value was 100 nM.

The record behind these values is US20150110786A1 (YEDA RESEARCH AND DEVELOPMENT, published 2015).
